Experimental data published in a protein production outcome set (Wang et al. 2014).

Assay: label from the status in PepcDB records

| Sequence | protein production |
| --- | --- |
| MSSRSHARPEAVTRIASLAECGETVACMACARYPSCLAHLRLRMKRHFSMLRDFQLADWFTLANAFCGTGAVFAAMRFLQEEHRGDLLLGMALIPLAFVFDALDGHVARWRKASSTLGRELDSLADVISFGVAPAALGYACGMRGGWDWLVLSYFVCCGVSRLARYNVTAEEIAGEADKVPYFEGTPIPTSLLLVILLAVAASIGHIGETLWWGQWQLGPWQFHPLVLLFAVSGSLMISKTLRIPKL | failed |
| MIDDKYFDVFNDKSTLQAIAVPERLERRTTVTDRIDRNGTRHEAVVPVGAAYTLLPKQFCKPAAKNYLFELDDFQKISVCSLERDESVLVSAHTSSGKTVVAEYAIAMSLRSNQRVVYTSPIKALSNQKYRELLSEFSDVGLMTGDVTINPTASCLVMTTEILRNMLYRGGEVVREIHWIIFDEIHYMRDKERGVVWEETIILLPKHVRMVFLSATIPNALEFAEWISHIQSQVVHVVYTEKRVTPLVHYFRSNKLYKIKDAKFHKSNFLSAMRSIRKRNVGPREVGEAIGDASLPVVVFSFKRKDCERFAMKLDGRYLTDEEARTVQTIFTNAIMSLRKEDREIPIIQNILPLLMRGIGIHHSGLLPIIKEVVEILFQEGLLKVLFATETFSIGLNMPAKSVVFTALKKFDGEAMRLVSSGEYIQMSGRAGRRGIDSMGIVISIISEPITYKEASRLFSASSDNLVSAFRLTYNMLLNLMRVEGLDPLYLISRSFHHFQSYKKALAEEETLHLMYRRLEDIEPNETACLYRKREEKKVERGKRLVEAFGKYLKKGRVVDLFIPRNGPSITIRNAIVSKAREKVQCMVGTEEGVYMCSFPLHYIDCVYDIRVKLDVRVFTKSFEKIAVRDELDEEIEEIEGKILSMDPEWSFDFCVLCGKSSVGCLVSCSRELIDSEAVIVQMPENTKRYGESLEAARYPSTEMKSNMDGARAFFVNETLRQRYLEKLLELNSLKEIYHMRECKKMIEVLKKLEYCDDTTVLIKGRMACEISSGDELVLTEMIFNGDFAGIPVEHFVPLLSCIVFEEWDSDSFVLSDENKLYYRLLSDSVEKVCKVLKSCGIEIDPAAYLKRFSYELMDVVRMWVCGCTFISICSKTSIFEGSIIRTFKRLEELLRQLSSAARVIGNTELENMFALGIVKIKRDIVFANSLYI | failed |
| MSILHTVNKSPFERNSLESCLKFATEGASVLLFEDGIYAALAGTRVESQVTEALGKLKLYVLGPDLKARGFSDERVIPGISVVDYAGFVDLTTECDTVQAWL | not failed |
| MRTWKMRKDGQRIDYLGRKWRNLGGPFMEVSRVVTWIIIITLVALAIKTILPFFSPLFFAFITAYALYPLHIKLKERIGSKNSAILLTLFLLLGALMILLILVYTLTPVIGQAYDYLTNLEKIKINIPLVPKSVISSLEGVIDEFIERGKGYLVSLTFSVPKYLLQVIVYLTFVYFFLVKEKEARELITFEDEKLIRIIERGNLTLQALIRVWLLLNIVKGILMTLGFLIFKVSNLPTAILAGLLTVLFSFIPLFEGWMIWLAGAFYLVKQGHIIAGIGLAVYGFTLVSPLPDFTIRPKLVAREAEFNDVLVLIGMIGGTWGLGLKGLIIGPIVLNVAIEMLREWKNVQAKTERS | failed |
| MSTILSLAPQNVWKHFYSLTQVPRPSGYLKKVQEFLLNFGKSVGVESFQDEAGNIIYRKPATPGMENRKKVILQAHMDMVPQKNNDTVHDFENDPIETYIDGDWVKAKGTTLGADDGMGVAAIMAIMEDKTLKHGPLEALITADEETGMFGAFGLKPGTVDGDILLNLDSEEEGELYIGCAGGEDLTAVLEYKEVETDPADIALKVTLKGLRGGHSGLEINEGRANANKLMARFMNQVITYDEACLVSWQGGNMRNAIPRECEVVITVPAEEEADVLEFVQECEALWNEEYHVHETPISFKAERVELPAMMVPDEIKDNLVDAIYACQNGVMRMIPTIPDTVETSSNLAIVSIGGGKAEIKILARSSRDSMKDYLNTALESCFSMAGMEVTRSGGYSGWEPNVDSPILKAMKESYKAQFGTEPAVKVIHAGLECGIIGAVVPGLDMISFGPTLRSPHSPDERCFIPSVGKFYDFVVATLENTPVKE | failed |
| MNKQFIILYFNIFLVFLGIGLVVPVLPVYLKDLGLKGSDLGILVAVFALAQMIISPFGGTLADKLGKKLIICIGLGLFAISEFLFAASHTFSLLIVSRILGGFSAGMVMPGVTGMIADISVGRDKAKNFGYMSAIINSGFILGPGMGGFLAEFSHRLPFYVAGFSGCVALILSIALIKNPKNSTQDGFTQYQPELLSKINWKVFLTPIILTLVLAFGLSAFETLFPLYTADKAHYSPLDISFAITGGGIAGAIFQVFFFDKFMKHFKELTFITYALLYSAIILLALTFVHSYWSIMIISFIVFIGFDMIRPAITNYFSNIAGNRQGFAGGLNSTFTSMGNFIGPLVAGTLYDINFEFPLYMSVLVMVLGMFVIFIEKMIRSRFSNI | failed |
| MSLKITRIDIHRTDLPVRGGVYRLSGGREYHSYDATIVSIETDTGLTGWGESTPFGSTYIAAHAGGTRAALELLAPAILGMDPRQHDRIWDRMRDTLKGHRDARAALDIACWDIAAQAAGLPLCDMTGGRVAGPVPVISSIGGDTPEAMRAKVARHRAQGFKGHSIKIGASEAEGGPALDAERITACLADRQPGEWYLADANNGLTVEHALRMLSLLPPGLDIVLEAPCASWAETKSLRARCALPLLLDELIQTETDLIAAIRDDLCDGVGLKVSKQGGITPMLRQRAIAAAAGMVMSVQDTVGSQISFAAILHLAQSTPRHLLRCALDTRAMTTAELAEIDAPLRDGGASAPSDPGLGLRVNRDALGTPVKTFGDPIEGHHHHHH | not failed |
| MIYFIRKKKWLKQLEKGEAMKYAILIGDGMADYPIEKLGNRTILQAARTPAMDSIAARGRAGLAKTVPDSFPPGSDVANMSILGYDPATYYSGRAPLEAASMGVALAADDVAFRCNLITTEHGMIKDYSAGHISSDEAEILIDTLDYELSTENIRFYPGISYRHLIVAGNNLGAETECTPPHDITGEKIDKYLPRGKDGEFFSELIEASKVVLELHPVNLKRVEEGKNPANSIWVWGQGYAPKFTAFMKLYGKKGAVISAVDLLKGIGIYAGLDVIEVHGATGYLDTNYEGKVRAAIEALKTRDLVFVHVEAPDEAGHEGSIEKKLKAVEDFDSRIVAPILEYAENSDEPFTILVLPDHPTPISVKTHTRDPIPFAIYRTDKPETDNVEAFDEESVKNGSMGLVKASDLIGILIKSLEHHHHHH | not failed |
| MIKLSSITAHILDIWHRRNSRSYIAHLRSLGIRIGDGCIFRDPLTTRIDVSRPALVSIGSNVDMNTYFQILTHDWASFVFRNKYHDFVNSSGRVEIGSNIYIGTNVIVLRGVTIGDNCVIGAGSVVTHDIPANSVAVGAPCRVVCSLEHHHHHH | not failed |
| MKRSDNVSWSQLKGGIFILVALAFFAGGVLLMGDKTKFFVPKGRLSVIMADVAGLKAGAPVWLAGVDVGVVTQIHFERPEATNEVEIVLEVDREALKKIGADSVVTVKTRGLMGEKYVDITPTREIVAKPVTRLQGTPMPKLDDVVQKAGRAFDRVDAIVAKTERGEGTLGRFASDPKLYDSLVRLTTELNAVAVSVNRGEGTLGMLNKSREPYEKLMSILNRADNTLTDIQSSEGTMSKLIHDRELYDKLVAVASKAGTAADEVRELNRRLLSKDGTLGKLVADREFYDRGLTLINRADTSLKSLEEVTARLQRGEGTAGKLLSDRELYDRLNRTVDDLDLLVKDIKENPKRYVKFSVFLEHHHHHH | failed |
| MYDNENPNGFGSNPEENNDDNISGTENNNFEEVNSQQVSQDAVNSSEQNTEQTAEQESSVYRQSYVNDEHHNADDVSGNGTYYSQGSNNSSNDSTQNGSYYNNTQDGSYYNSNSNNSQNNGYYYSTNDSQTNNGYNYNSNNNNNGNGKKKKKKRTLIAVVAVCVVLLAGTIGISAAYFSKNKDSLTNVLEDGTLSNNNNNSNSNNDNSSDSGNYESIGSTNTQNDANSSSTSGVTVTDVSSVVSSAMPSVVAITSKTLVESRNDYSQDIWEYYFGGGNSGNNKSNSYEEDAAGSGIIVDQTSTELLIVTNNHVVEGADSLKIQFAGTESKDSVDGYIKGTDSTKDVAVVAVKLKDIPSDVLKNIKKATLGDSDKVNVGEGVIAIGNALGYGQSVTTGIISAKDRKVQLENQTMTLLQTDAAINGGNSGGALLNASGEVIGINVAKYSSSGSSSNASVEGMGFAIPISSVKDIISDLETKETRTKVSEDERGYLGISGFDVDEQTSQAYSIPQGIQVQSVVKGGPAENAGIAASDVITKFDGQDVSSMASLQSMLEYYKKGEQVKVTIEYRDGREYKTKDVTVTLGDKSVIETTQNAAN | failed |
